Values of other authors, collected in article PMC2628467.

Target: RNase H folding intermediate mimic (Escherichia coli) (UniProt P0A7Y4)

Kd: 500 nM
Substance: RNase H folding intermediate mimic (from UniProt P0A7Y4)
